{"source": "paper doi:10.1101/366336"}
{"biological_target": "hPcf11 (in CF II);hClp1 (human;human, UniProt O94913;Q92989 1-1555;1-425, |)", "sequence (O94913 whole entry, chain 1 of 2)": "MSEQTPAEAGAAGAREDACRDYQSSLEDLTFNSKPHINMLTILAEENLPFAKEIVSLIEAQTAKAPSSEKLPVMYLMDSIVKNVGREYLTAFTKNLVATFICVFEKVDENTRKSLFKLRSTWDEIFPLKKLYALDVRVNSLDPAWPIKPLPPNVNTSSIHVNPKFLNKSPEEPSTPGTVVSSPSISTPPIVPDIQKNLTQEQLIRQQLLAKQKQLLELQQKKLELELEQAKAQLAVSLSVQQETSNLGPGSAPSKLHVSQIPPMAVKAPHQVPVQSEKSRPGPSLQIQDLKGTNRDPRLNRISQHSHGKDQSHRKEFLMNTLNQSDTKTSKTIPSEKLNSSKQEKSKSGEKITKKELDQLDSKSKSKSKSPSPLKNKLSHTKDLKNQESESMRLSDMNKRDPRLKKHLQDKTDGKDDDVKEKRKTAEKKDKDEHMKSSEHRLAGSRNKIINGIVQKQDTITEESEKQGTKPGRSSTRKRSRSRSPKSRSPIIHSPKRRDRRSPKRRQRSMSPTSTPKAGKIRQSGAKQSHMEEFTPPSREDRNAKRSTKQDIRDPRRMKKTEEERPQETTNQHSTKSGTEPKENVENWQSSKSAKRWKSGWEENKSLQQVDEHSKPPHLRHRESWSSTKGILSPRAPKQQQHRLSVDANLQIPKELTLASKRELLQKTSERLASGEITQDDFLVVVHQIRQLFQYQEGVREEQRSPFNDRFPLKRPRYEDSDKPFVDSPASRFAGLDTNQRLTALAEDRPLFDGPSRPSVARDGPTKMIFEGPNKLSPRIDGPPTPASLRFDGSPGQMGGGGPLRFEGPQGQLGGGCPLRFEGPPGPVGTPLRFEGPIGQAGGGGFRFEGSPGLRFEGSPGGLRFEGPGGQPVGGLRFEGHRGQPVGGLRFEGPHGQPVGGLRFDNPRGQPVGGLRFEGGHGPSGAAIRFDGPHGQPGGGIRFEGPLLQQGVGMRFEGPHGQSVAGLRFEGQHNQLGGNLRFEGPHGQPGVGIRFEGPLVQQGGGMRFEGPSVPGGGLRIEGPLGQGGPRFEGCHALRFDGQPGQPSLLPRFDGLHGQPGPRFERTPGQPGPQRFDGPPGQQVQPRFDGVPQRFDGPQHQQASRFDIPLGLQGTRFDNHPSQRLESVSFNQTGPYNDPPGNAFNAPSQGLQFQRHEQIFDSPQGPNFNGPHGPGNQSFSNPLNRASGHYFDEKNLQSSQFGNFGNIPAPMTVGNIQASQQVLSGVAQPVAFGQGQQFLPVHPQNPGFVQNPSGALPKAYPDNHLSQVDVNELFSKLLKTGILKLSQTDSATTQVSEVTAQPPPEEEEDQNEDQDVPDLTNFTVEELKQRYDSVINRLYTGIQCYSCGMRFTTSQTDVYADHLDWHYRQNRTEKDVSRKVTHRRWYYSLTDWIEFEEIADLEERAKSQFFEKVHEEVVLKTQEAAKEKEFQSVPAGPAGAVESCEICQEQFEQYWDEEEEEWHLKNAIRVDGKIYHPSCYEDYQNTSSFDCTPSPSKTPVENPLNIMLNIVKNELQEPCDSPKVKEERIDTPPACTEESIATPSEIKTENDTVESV", "sequence (Q92989 whole entry, chain 2 of 2)": "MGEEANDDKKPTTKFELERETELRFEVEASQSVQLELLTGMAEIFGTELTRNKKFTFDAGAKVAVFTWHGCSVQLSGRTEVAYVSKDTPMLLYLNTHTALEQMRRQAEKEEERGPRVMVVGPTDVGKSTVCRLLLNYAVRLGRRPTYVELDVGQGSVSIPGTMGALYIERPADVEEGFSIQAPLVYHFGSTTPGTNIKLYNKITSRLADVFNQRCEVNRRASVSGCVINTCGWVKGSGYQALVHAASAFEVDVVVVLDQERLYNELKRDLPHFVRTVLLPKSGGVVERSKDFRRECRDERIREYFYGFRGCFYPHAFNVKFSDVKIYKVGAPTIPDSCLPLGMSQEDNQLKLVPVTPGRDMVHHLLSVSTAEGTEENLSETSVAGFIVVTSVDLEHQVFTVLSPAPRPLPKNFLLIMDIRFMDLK", "assay": "EMSA", "units": {"Kd": "nM"}}
{"binder": "GGUUCAGGGGGAGGUGUGGGAGG (ssRNA)", "note": "[202-224]", "Kd": 0.8}
{"binder": "GGGGGAGGUGUGGGAGGU (ssRNA)", "note": "[208-225]", "Kd": 2.6}
{"binder": "GGGGGAGGUGUGGGAGG (ssRNA)", "note": "[208-224]", "Kd": 5.2}
{"binder": "GGGUUUAAGUGGGUCACGUUUAAAC (ssRNA)", "note": "[BS2]", "Kd": 11}
{"binder": "GGGUUUAAGUGGGUCACG (ssRNA)", "note": "[BS2-d1]", "Kd": 13}
{"binder": "CCCUUUAAGUGGGUCACG (ssRNA)", "note": "[BS2-d2]", "Kd": 54}
{"binder": "UUUAAGUGGGUCACG (ssRNA)", "note": "[BS2-d3]", "Kd": 105}
{"binder": "GGGGGGGGGGG (ssRNA)", "note": "[G11]", "Kd": 41}
{"binder": "GGGGGGGGGGGG (ssRNA)", "note": "[G12]", "Kd": "21 ± 9"}
{"binder": "GGGGGGGGGGGGG (ssRNA)", "note": "[G13]", "Kd": "21 ± 12"}
